# Reference: a protein production outcome set (Wang et al. 2014)
# Experiment: label from the status in PepcDB records
row,Sequence,protein production
1,PDTIIAVDRDHRIIYVNRAMPGHKKTLAVGDHLCDHIMQPYHDRYHHTIERVIVTGKTAVLECELVVSPEETIELESRFAPCFLNGEVTSVVMLSVDITERKGMELELKKTLIDLERFNRVMVGRELRNIELKKRIASLQNDLVLSSGNAQASDDSRQDFATEDEDCAGIHHGDGFEEACDEVQYRKQQRMALLNLIEDANLARNELLETNRKLEESVIRTQEMARAASKANEAKSQFLANMSHEVRTPMNGVIGMSDLLLDTS,failed
2,MCGIVGANSTRNVTNILIEGLKKLEYRGYDSAGLAIIDDKNNIDICKEVGKVIELEKSVHNLANFKGDIGIAHTRWATHGKPSKNNSHPHASESFCIVHNGVIENFAELKKVLINDGYKFKSDTDTEVIAHLLQKEWRDNFSIVDNIKYIMAMLKGAYAVAIISQKFSDKIVAVRSGSPLVIGVGIDENFISSDALSLLPVTNKFSYLDEGDIAIISKDNVEVFDNNGAAKNLEVEEYNYSSSSASKDGYKHYMLKEIYEQPEAVSNTILASLADGEISLDSFDKRAKELFEKTKHICIVACGTSYNAGMTAKYWIEKYAKVPCSVEIASEIRYRDNVVVDGSLFVSISQSGETADTLESLRKSKKQNYVGSMCICNVPNSSLVRESDIAFMTKAGVEIGVASTKAFTTQLVALAIFTLVIAKLKNSLTDQQIAKYTEELKNIRALVMGALKLDTEIDQISEYFSDKEHTIFLGRGLYYPIAIEGALKLKEISYIHAEAYPSGELKHGPLALVDKNMPIVAVVPNDELLDKTLSNLQEVHARGGKLILFVDKAVKERVNFDNSIVLELDAGHDFSAPVVFTIPLQLLSYHVAIIKGTDVDQPRNLAKSVTVE,not failed
3,MHHQRKTHVDNNIAAVELAKAYRLLNHGPTVLVSARSQGIDNVMAAAWCCALDFAPPKLTVVLDKMTKTREFIEQSGMFVIQVPTVAQLQLTHRVGSQSLADDANKLLNCGVELFEMAGHDLPFVAGCSAWLACKLIPEPNNQLQYDLFIAEVIGAWADTQVFNHGHWHFDTAPADKRSLHYIAGGQFYAIGESFNAD,not failed
4,MSLYNYVLFDLDGTLTDSAEGITKSVKYSLNKFDIQVEDLSSLNKFVGPPLKTSFMEYYNFDEETATVAIDYYRDYFKAKGMFENKVYDGIEALLSSLKDYGFHLVVATSKPTVFSKQILEHFKLAFYFDAIVGSSLDGKLSTKEDVIRYAMESLNIKSDDAIMIGDREYDVIGALKNNLPSIGVTYGFGSYEELKNAGANYIVNSVDELHKKILELREGHHHHHH,not failed
5,ESLQQVVMAYFGVQFKSEQKAIALKAMQHIVQSFSLDNGPQNHDITHHTDNQGYENYIVVGYWRDPGAYCRWFRSTEVSHWWDSDERLNDGIGYFREIVIPRADQFETLYAFKEDLPGVGAVMDDISDDIQEHGYWGSARERF,not failed
6,MIPSSSPMESRHRLSFSNEKTSRRRFQRIEKGVKFNTLKLVLICIMLGALFTIYRFRYPPLQIPEIPTSFGLTTDPRYVATAEINWNHMSNLVEKHVFGRSEYQGIGLINLNDNEIDRFKEVTKSDCDHVALHLDYAAKNITWESLYPEWIDEVEEFEVPTCPSLPLIQIPGKPRIDLVIAKLPCDKSGKWSRDVARLHLQLAAARVAASSKGLHNVHVILVSDCFPIPNLFTGQELVARQGNIWLYKPNLHQLRQKLQLPVGSCELSVPLQAKDNFYSAGAKKEAYATILHSAQFYVCGAIAAAQSIRMSGSTRDLVILVDETISEYHKSGLVAAGWKIQMFQRIRNPNAVPNAYNEWNYSKFRLWQLTEYSKIIFIDADMLILRNIDFLFEFPEISATGNNATLFNSGLMVVEPSNSTFQLLMDNINEVVSYNGGDQGYLNEIFTWWHRIPKHMNFLKHFWEGDEPEIKKMKTSLFGADPPILYVLHYLGYNKPWLCFRDYDCNWNVDIFQEFASDEAHKTWWRVHDAMPENLHKFCLLRSKQKAQLEWDRRQAEKGNYKDGHWKIKIKDKRLKTCFEDFCFWESMLWHWGETNSTNNSSTTTTSSPPHKTALPSL,failed
7,MALSIIENGKKLESTIDFSNFLKEFKKYRLRVLLVVLAITLAAFPLINGMTPQYTATATIVLKAKTDNSTPIDQVEDFDATQAEYYPTQAELLQSKTVIEAAAKKLDLINSPIFEDEDKDENIPQSEEEHLYSIVKAIKKKLSISPVRFSQLVHVSYESKDSDMSALVANAVVESYIEQQEQRKIEKTQQAQQWNNTRMSELKEKIKQQKADIDKFLSDNGLLTYQGVDGFETEQLALVNDRLATAKEKRITAKANYNTISEALGYPLEDVATLPSISNHAQLQDLRIALIQAKRTLFDLQKMYGPKNRQILEANAQIKAIELQTTALLKELKTGLYKEYQAAIERENKYRALLAEQKKDFTALAAKKDTYNTMKADLDKTQELYEKIFLRSKEQELTVLYREPVARLLDAATPPHKPSKPNKALLLIMVCAMTIIFSLLFIIIKSALNKSINNLTQVNTRLGLQGIGELISLNYIDELALFTKNFFKNSYSAETVHAIRTTILLDDKPWPIIGLTSTESTESNELNSYLLAYSFSQDRSTLLIDLDYRKEISLTEAILMQKENEIDAKKAENSDDFETVPTSTVMGVAEALEQKHPINDCLIKIENNLTFLPRGTLTETPLITLASEELGRQLKELSKQFEQVIVNLPAMTESKDAQLIARHLSGVIYTVQAGELSANHILANIEKVKQVQTPIMGVILTDVQNDELETEEAKQQLIHQNDDILG,failed
8,MRAHTLSRQLREGNLFAEQCPSREVLKHVTSRWGVLILVALRDGTHRFSDLRRKMGGVSEKMLAQSLQALEQDGFLNRVSYPVVPPHVEYSLTPLGEQVSDKVAALADWIELNLPQVLAQRERLSDGG,not failed
9,SPAYQEDREEDTCTIGEREKTIATQRIKGFGVENPVLPESPPASMSSVMKNNPLYGDITLEEAMEERKKSPSWTIEEYDKHSVHTNLSGHLKENPNDLRFWLGDTYTPGFDTLLKKKKKRNKRSKLCHMGLILLLVASILVTIVTLSTIFS,failed
10,KLPFDYQVNSTRHFMRELNRLGVTGAIDAGGGFQNYPDDYAVIQKLDEEGLLTIRLAYNLFTQKPKGEKDDFLNWTKTSKYKQGNDYFRHNGAGEMLVFSAADFEDFRVPRPDMPPEMEGELEEVVRILVQNKWPWRLHATYDETISRALDVFEKVNQDTPLDGLHWFFDHAETISDRSIDRIAALGGGIAVQHRMAYQGEYFVERYGFGAAEATPPVRRILDSGVKVSAGTDATRVASYNPWVSLSWLVTGRTVGGLRITPQRNCLDRETALRMWTENVTWFSNEEGN,failed
11,IAKNNYKELIQNIIEESYTDSQFTLSVLSEKLDLSSGYLSIMFKKNFGIPFQDYLLQKRMEKAKLLLLTTELKNYEIAEQVGFEDVNYFITKFKKYYQITPKQYREMVLKNE,failed
12,MQTTEIDLRLTEVSQQLTMVLVPGLRDSDDEHWQSHWERRFPHWQRIRQREWYQADLDRWVLAIRRELSVCTQPVILIGHSFGALAACHVVQQGQEGIAGVMLVAPAEPMRFEIDDRIQASPLSVPTLTFASHNDPLMSFTRAQYWAQAWDSELVDVGEAGHINAEAGFGPWEYGLKRLAEFSEILIPNR,not failed
13,AEGQTVYWHAWGGDPKINAFIAWVGEQARARHGFMLEQVKLADTTEAVARVLAEKQAGRTEGGAVDLIWINGENFAAMKAQGLLSEPFAESLPNWTHVDVAGKPAVVTDFTEPTGGLESPWAMAQLVFEHDSARLPAPPRTLAQLLAWIEVNPGRFTFPQPPDYLGTTFLKQVLYGVIEDPGLLQKPVDPATYETVTAPLWTWLDRAEPYLWREGRAYPANEPALGQLFADGEIAISFAFNPGRASAAIAAGELPETVRTFTLEGGTIGNASFVAIPFNAAHAAGAKVIANLLLDPEVQARAQDPAVLGFQTVLDVAALPEPDRARFAAL,failed
14,MAIMASRKHLKRFKSPVHWPIHPKEYKWTVKPSPGPHAIENSLPLMIIVRDILKVADNAREARKIINSGEVLVDGRPRKNYKFPVGFMDVVSIPRTGDVYRVLPDERGRLVLHPIDEENAGFKLCKIVNKTTIKGGRTQLNLHDGRNYLSDDEFRVGDVVKLSIPEQEILERIPFEKDSLGLVTGGRHTGEIGKIKKINITRSSMPNTAVIETGAGKTFLTLKDYVFVIGKDESVISLPGGKLEHHHHHH,failed
15,MEDYGFEYSDEEQEEQDVDIENQYYNSKGMVETEPEEALSGFAEVVQMEPEKADWGFKALKQTVKIYYRLGKYKEMMEAYTEMLTYIKSAVTRNYSEKCINNIMDFVSGSASQNTGLLQEFYQTTLKALEEAKNERLWFKTNLKLCNIWFDIGEYRRMTKILKELHKSCQKEDGTDDQKKGSQLLEVYAIEIQIYTETKDNKKLKQLYHKALAIKSAIPHPRIMGIIRECGGKMHMAERQWEEAATDFFEAFKNYDEAGNQRRIQCLKYLVLANMLMESEVNPFDGQEAKPYKNDPEILAMTNLIAAYQRNEIIEFERILKSNRRTIMDDPFIRNYMEDLLKKVRTQVLLKLIKPYTKIGIPFISKELNVPETDVTELLVSLILDSRIDGHIDEMNRYLLRGDSGNGRKLHKAVDKWNSQLKSLSSNITSRVC,failed
16,MNAVTEGRKVLLEIADLKVHFEIKDGKQWFWQPPKTLKAVDGVTLRLYEGETLGVVGESGCGKSTFARAIIGLVKATDGHVAWLGKELLGMKPDEWRAVRSDIQMIFQDPLASLNPRMTIGEIIAEPLRTYHPKMSRQEVRERVKAMMLKVGLLPNLINRYPHEFSGGQCQRIGIARALILEPKLIICDEPVSALDVSIQAQVVNLLQQLQREMGLSLIFIAHDLAVVKHISDRVLVMYLGHAVELGTYDEVYHNPLHPYTRALMSAVPIPDPDLEKNKTIQLLEGELPSPINPPSGCVFRTRCPIAGPECAKTRPVLEGSFRHAVSCLKVDPL,failed
17,AEDPILRAIPENAFDGIAVTDAGGHVVYANSTYLALTGAATMQDVRPVERVFIGNPDVSEAVFRLLKAAREGRRLQEEVRVAGADGTQGRWMRLRVRPLGTSKREARQTVWSIADITRDRERQEDVFQTLQHAIEYLDHAPCGFFSVNPAGNLVYVNATLANWLDH,failed
18,MRKLDRVDMQLVKILSENSRLTYRELADILNTTRQRIARRIDKLKKLGIIRKFTIIPDIDKLGYMYAIVLIKSKVPSDADKVISEISDIEYVKSVEKGVGRYNIIVRLLLPKDIKDAENLISEFLQRIKNAENVEVILISEVRKFEII,not failed
19,MTEKFGAKSTADEVLSGVDLRGKRFLITGVSSGIGLETARALVAHGASVVGAVRDRAKAERATASVRDAASQGGGTLELTELDLASLQSIRACADRLLADGRRFDSIIANAGVMATPFARTADGFELQFGTNHLGHFALVNRIASLLADNGRLVVLSSQAHRVADVDLDDPNFERQAYDPWVAYGRSKTATSLFAAEFDKRHRDRGIRAASVMPGNSLTDLPRHLRQEDLQGLFETVGKARAEAGLPPAELKDIPQVAATSVWAAVVADKDEIGGHYLDDCAVAPINDTPNPFADGVRSYALDADKAKRLWAKSEEWIGANTAAI,failed
20,MGQKAKAQAPTTHPRPHTLSSQVAPALPRRPRHAAPESLRQARGEVMKAHLITYGCQMNEYDTHLVQSQLVSFGADIVESPDEADFVLVNTCAVRGKPVDKVRSLLGDLRKQKAQRSLVVGMMGCLAQLEEGQQIARKFEVDVLLGPGSLLDIGAALESNERFWGLQFKDELHDHIPPPPSGKLQAHLTIMRGCDHHCTYCIVPTTRGPQVSRHPDDILRELDMQLAAGVREVTLLGQNVNAYGVDQGAKLKGYPSFADLLRMVGASGIERVKFTTSHPMNFTEDVAAAIGETPAICEFVHLPVQSGSDRVLRRMAREYNREKYLTHIAQIKKHIPDVVLATDIIVGFPGETEEDFQDTLSLYDEVGYDSAYMFIYSPRPGTPSYKHFQDLPRELKTERLQRLIARQKDWSARKNAQKVGTVQQVLLRGDAHDAGFLEGHTRGNHPTVVPKAIGADGAGVYQVRIDHATPHMMYGHILGPDGQPLPEQPRFNPEAAAVGGALPML,failed
